Experimental data reported in PMC4519987.

B1: Lef1_Δ_s1 (dsDNA)
DNA 1: CATTTCTTTATGTCAGGGTGGTACTGTTCTG
DNA 2: CAGAACAGTACCACCCTGACATAAAGAAATG
B2: Lef1_Biot (dsDNA)
DNA 1: CATTTCTTTATGTCCTTTGTTTACTGTTCTG
DNA 2: CAGAACAGTAAACAAAGGACATAAAGAAATG
B3: Lef1_s1 (dsDNA)
DNA 1: B2 DNA 1
DNA 2: B2 DNA 2

How the values were obtained:
SOX17-Flag (rSOX17-Flag) [1] = target: T1, SOX17-Flag (rSOX17-Flag) (UniProt Q9H6I2 1-414); test: competition; 300-fold excess vs Lef1_Biot; EMSA: 100 mM HEPES pH 8.0, 50 mM KCl, 500 uM DTT, 50 uM EDTA, 1 mM MgCl2, 5% glycerol, 0.02 U poly(dG-dC), 0.3 pmol biotin probe, 300-fold excess competitor; 7%
SOX17-Flag (rSOX17-Flag) [2] = target: T1, SOX17-Flag (rSOX17-Flag); test: EMSA; EMSA: 100 mM HEPES pH 8.0, 50 mM KCl, 500 uM DTT, 50 uM EDTA, 1 mM MgCl2, 5% glycerol, 0.02 U poly(dG-dC), 0.3 pmol biotin probe, 300-fold excess competitor; 7%

T1 sequence (Q9H6I2 whole entry): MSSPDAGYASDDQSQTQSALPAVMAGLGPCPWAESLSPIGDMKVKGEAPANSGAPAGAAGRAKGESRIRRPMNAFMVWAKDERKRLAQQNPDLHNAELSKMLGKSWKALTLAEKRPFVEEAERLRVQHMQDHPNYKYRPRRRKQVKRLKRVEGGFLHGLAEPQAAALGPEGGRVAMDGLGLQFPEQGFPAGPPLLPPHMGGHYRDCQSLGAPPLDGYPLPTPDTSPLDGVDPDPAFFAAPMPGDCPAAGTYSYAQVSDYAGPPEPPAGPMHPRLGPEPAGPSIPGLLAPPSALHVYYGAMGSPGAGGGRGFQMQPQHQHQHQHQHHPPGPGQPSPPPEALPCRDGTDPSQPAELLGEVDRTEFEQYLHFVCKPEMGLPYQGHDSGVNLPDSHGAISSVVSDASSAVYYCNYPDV

Row | Binder | binding result (SOX17-Flag (rSOX17-Flag) [1]) | binding result (SOX17-Flag (rSOX17-Flag) [2])
1 | B1 | no binding | 
2 | B2 |  | binds
3 | B3 | binds | 
